Data as given in publication PMC5779224, “Autoinhibition of ankyrin-B/G membrane target bindings by intrinsically disordered segments from the tail regions” (eLife, 2017).

Key:
[1] = target: T1, AnkG 38–855 (AnkG MBD-AI-c protein; MBD + partial AI-c) (rat, UniProt O70511-1 38-855); experiment: ITC; VP-ITC MicroCal, 25 °C; proteins in 50 mM Tris-HCl pH 7.8, 1 mM DTT, 1 mM EDTA with 100 mM or 500 mM NaCl as required; who was titrated is not told; details: both partners purified
T1 construct: numbers count on: rat AnkG NM_001033984.1 (MBD-UPA); also called AnkG WT; source: E. coli BL21 (DE3), purified (Ni2+-NTA, size exclusion)
T1 sequence (looked up): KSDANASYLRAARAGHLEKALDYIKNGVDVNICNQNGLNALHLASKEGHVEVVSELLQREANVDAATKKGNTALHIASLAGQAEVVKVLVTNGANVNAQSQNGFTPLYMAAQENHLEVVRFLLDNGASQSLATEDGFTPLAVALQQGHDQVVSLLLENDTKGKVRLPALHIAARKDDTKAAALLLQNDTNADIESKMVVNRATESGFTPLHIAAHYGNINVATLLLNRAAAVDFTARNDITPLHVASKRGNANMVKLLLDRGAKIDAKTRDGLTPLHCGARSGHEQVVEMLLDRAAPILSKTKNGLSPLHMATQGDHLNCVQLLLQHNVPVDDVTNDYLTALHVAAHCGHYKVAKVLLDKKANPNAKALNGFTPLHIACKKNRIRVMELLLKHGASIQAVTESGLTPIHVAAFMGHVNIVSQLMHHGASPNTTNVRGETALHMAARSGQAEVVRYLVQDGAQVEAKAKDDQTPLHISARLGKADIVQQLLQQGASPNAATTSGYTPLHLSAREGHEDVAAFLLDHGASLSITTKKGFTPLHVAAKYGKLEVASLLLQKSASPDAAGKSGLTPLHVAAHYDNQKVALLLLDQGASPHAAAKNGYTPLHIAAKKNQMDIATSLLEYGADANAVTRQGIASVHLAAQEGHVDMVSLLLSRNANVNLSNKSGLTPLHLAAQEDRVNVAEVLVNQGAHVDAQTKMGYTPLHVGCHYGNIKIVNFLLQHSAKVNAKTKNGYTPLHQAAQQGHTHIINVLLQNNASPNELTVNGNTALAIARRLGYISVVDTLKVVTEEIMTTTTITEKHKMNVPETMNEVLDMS

[2] = target: T2, AnkB 28–847 (MBD + partial AI-c) (human, UniProt Q01484-2 28-847); experiment: as above; details: both partners purified
T2 construct: ankyrin-B (AnkB), human 220 kDa isoform, residues 28-847: MBD and a short 20-residue linker; numbers count on: human 220 kDa AnkB NM_020977.3; also called extended MBD with a short 20-residue linker; source: E. coli BL21 (DE3), purified (Ni2+-NTA, size exclusion)
T2 sequence (looked up): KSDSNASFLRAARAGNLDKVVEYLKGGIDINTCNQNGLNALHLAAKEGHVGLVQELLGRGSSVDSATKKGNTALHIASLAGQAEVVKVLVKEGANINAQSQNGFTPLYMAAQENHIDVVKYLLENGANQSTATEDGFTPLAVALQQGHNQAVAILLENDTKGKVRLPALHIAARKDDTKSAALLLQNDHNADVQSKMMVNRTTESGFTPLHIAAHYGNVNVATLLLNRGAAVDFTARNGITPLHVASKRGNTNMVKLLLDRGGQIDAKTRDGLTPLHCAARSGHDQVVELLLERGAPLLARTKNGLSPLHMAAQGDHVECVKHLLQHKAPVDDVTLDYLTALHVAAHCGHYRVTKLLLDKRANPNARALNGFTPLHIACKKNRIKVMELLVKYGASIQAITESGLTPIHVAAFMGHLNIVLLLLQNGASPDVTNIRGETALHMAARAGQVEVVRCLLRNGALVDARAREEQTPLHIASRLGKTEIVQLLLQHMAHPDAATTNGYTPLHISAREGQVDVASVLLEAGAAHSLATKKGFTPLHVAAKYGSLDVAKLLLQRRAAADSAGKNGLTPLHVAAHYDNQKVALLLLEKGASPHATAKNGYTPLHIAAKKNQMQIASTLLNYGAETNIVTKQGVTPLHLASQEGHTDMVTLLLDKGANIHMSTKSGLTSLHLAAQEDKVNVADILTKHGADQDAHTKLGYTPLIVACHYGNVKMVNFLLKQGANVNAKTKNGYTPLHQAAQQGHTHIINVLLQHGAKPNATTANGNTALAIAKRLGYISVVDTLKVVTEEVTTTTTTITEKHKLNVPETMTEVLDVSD

B1: Nav1.2 (aa 1035–1129) (domain or fragment, mouse, UniProt B1AWN6 1035-1129, looked up)
chain: KALDEIKPLEDLNNKKDSCISNHTTIEIGKDLNYLKDGNGTTSGIGSSVEKYVVDESDYMSFINNPSLTVTVPIAVGESDFENLNTEEFSSESDM
notes: source: E. coli BL21 (DE3), purified (Ni2+-NTA, size exclusion)
**Q.** What does the source list for B1?
**A.** binding result [1]: binds; binding result [2]: binds
